Assay results: patent US20150147316A1 (Seagen, published 2015)

B1: HILE (antibody, V domains shown)
VH: QVQLVQSGAEVKKPGASVKVSCKASGYTFTNYDINWVRQAPGQGLEWIGWIYPGDGSTKYNEKFKAKATLTADTSTSTAYMELRSLRSDDTAVYYCASGYEDAMDYWGQGTTVTVSS
VL: DIQMTQSPSSLSASVGDRVTITCKASQDINSYLSWFQQKPGKAPKSLIYRANRLVDGVPSRFSGSGSGTDYTLTISSLQPEDFATYYCLQYDEFPLTFGGGTKVEIK
notes: Humanized antibody, heavy chain HI with light chain LE
B2: HCLA (antibody, V domains shown)
VH: QVQLVQSGAEVKKPGASVKVSCKASGYTFTNYDINWVRQAPGQGLEWMGWIYPGDGSTKYNEKFKARVTMTTDTSTSTAYMELRSLRSDDTAVYYCASGYEDAMDYWGQGTTVTVSS
VL: DIQMTQSPSSLSASVGDRVTITCKASQDINSYLSWFQQKPGKAPKSLIYRANRLVDGVPSRFSGSGSGTDFTLTISSLQPEDFATYYCLQYDEFPLTFGGGTKVEIK
notes: Humanized antibody, heavy chain HC with light chain LA
B3: HILA (antibody, V domains shown)
VH: QVQLVQSGAEVKKPGASVKVSCKASGYTFTNYDINWVRQAPGQGLEWIGWIYPGDGSTKYNEKFKAKATLTADTSTSTAYMELRSLRSDDTAVYYCASGYEDAMDYWGQGTTVTVSS
VL: DIQMTQSPSSLSASVGDRVTITCKASQDINSYLSWFQQKPGKAPKSLIYRANRLVDGVPSRFSGSGSGTDFTLTISSLQPEDFATYYCLQYDEFPLTFGGGTKVEIK
notes: Humanized antibody, heavy chain HI with light chain LA
B4: h2H12 antibody (2H12 HILG) (antibody, V domains shown)
VH: QVQLVQSGAEVKKPGASVKVSCKASGYTFTNYDINWVRQAPGQGLEWIGWIYPGDGSTKYNEKFKAKATLTADTSTSTAYMELRSLRSDDTAVYYCASGYEDAMDYWGQGTTVTVSS
VL: DIQMTQSPSSLSASVGDRVTINCKASQDINSYLSWFQQKPGKAPKTLIYRANRLVDGVPSRFSGSGSGQDYTLTISSLQPEDFATYYCLQYDEFPLTFGGGTKVEIK
notes: also called humanized 2H12; human 2H12 antibody
B5: HCLE (antibody, V domains shown)
VH: QVQLVQSGAEVKKPGASVKVSCKASGYTFTNYDINWVRQAPGQGLEWMGWIYPGDGSTKYNEKFKARVTMTTDTSTSTAYMELRSLRSDDTAVYYCASGYEDAMDYWGQGTTVTVSS
VL: DIQMTQSPSSLSASVGDRVTITCKASQDINSYLSWFQQKPGKAPKSLIYRANRLVDGVPSRFSGSGSGTDYTLTISSLQPEDFATYYCLQYDEFPLTFGGGTKVEIK
notes: Humanized antibody, heavy chain HC with light chain LE
B6: HCLG (antibody, V domains shown)
VH: QVQLVQSGAEVKKPGASVKVSCKASGYTFTNYDINWVRQAPGQGLEWMGWIYPGDGSTKYNEKFKARVTMTTDTSTSTAYMELRSLRSDDTAVYYCASGYEDAMDYWGQGTTVTVSS
VL: DIQMTQSPSSLSASVGDRVTINCKASQDINSYLSWFQQKPGKAPKTLIYRANRLVDGVPSRFSGSGSGQDYTLTISSLQPEDFATYYCLQYDEFPLTFGGGTKVEIK
notes: Humanized antibody, heavy chain HC with light chain LG
B7: murine mAb 2H12 (antibody, V domains shown)
VH: QVQLQQSGPELVRPGTFVKISCKASGYTFTNYDINWVNQRPGQGLEWIGWIYPGDGSTKYNEKFKAKATLTADKSSSTAYLQLNNLTSENSAVYFCASGYEDAMDYWGQGTSVTVSS
VL: DIKMTQSPSSMYASLGERVIINCKASQDINSYLSWFQQKPGKSPKTLIYRANRLVDGVPSRFSGSGSGQDYSLTISSLEYEDMGIYYCLQYDEFPLTFGAGTKLELK
notes: Murine monoclonal antibody from Balb/c mice; also called m2H12; murine 2H12 antibody
B8: c2H12 (antibody, V domains shown)
VH: QVQLQQSGPELVRPGTFVKISCKASGYTFTNYDINWVNQRPGQGLEWIGWIYPGDGSTKYNEKFKAKATLTADKSSSTAYLQLNNLTSENSAVYFCASGYEDAMDYWGQGTSVTVSS
VL: DIKMTQSPSSMYASLGERVIINCKASQDINSYLSWFQQKPGKSPKTLIYRANRLVDGVPSRFSGSGSGQDYSLTISSLEYEDMGIYYCLQYDEFPLTFGAGTKLELK
notes: also called chimeric 2H12
B9: cHLA (antibody, V domains shown)
VH: QVQLQQSGPELVRPGTFVKISCKASGYTFTNYDINWVNQRPGQGLEWIGWIYPGDGSTKYNEKFKAKATLTADKSSSTAYLQLNNLTSENSAVYFCASGYEDAMDYWGQGTSVTVSS
VL: DIQMTQSPSSLSASVGDRVTITCKASQDINSYLSWFQQKPGKAPKSLIYRANRLVDGVPSRFSGSGSGTDFTLTISSLQPEDFATYYCLQYDEFPLTFGGGTKVEIK
notes: Hybrid of the chimeric heavy chain (murine VH, human constant region) and humanized light chain LA
B10: cHLE (antibody, V domains shown)
VH: QVQLQQSGPELVRPGTFVKISCKASGYTFTNYDINWVNQRPGQGLEWIGWIYPGDGSTKYNEKFKAKATLTADKSSSTAYLQLNNLTSENSAVYFCASGYEDAMDYWGQGTSVTVSS
VL: DIQMTQSPSSLSASVGDRVTITCKASQDINSYLSWFQQKPGKAPKSLIYRANRLVDGVPSRFSGSGSGTDYTLTISSLQPEDFATYYCLQYDEFPLTFGGGTKVEIK
notes: Hybrid of the chimeric heavy chain (murine VH, human constant region) and humanized light chain LE
B11: cHLB (antibody, V domains shown)
VH: QVQLQQSGPELVRPGTFVKISCKASGYTFTNYDINWVNQRPGQGLEWIGWIYPGDGSTKYNEKFKAKATLTADKSSSTAYLQLNNLTSENSAVYFCASGYEDAMDYWGQGTSVTVSS
VL: DIKMTQSPSSLSASVGDRVTITCKASQDINSYLSWFQQKPGKAPKSLIYRANRLVDGVPSRFSGSGSGTDFTLTISSLQPEDFATYYCLQYDEFPLTFGGGTKVEIK
notes: Hybrid of the chimeric heavy chain (murine VH, human constant region) and humanized light chain LB
B12: HIcL (antibody, V domains shown)
VH: QVQLVQSGAEVKKPGASVKVSCKASGYTFTNYDINWVRQAPGQGLEWIGWIYPGDGSTKYNEKFKAKATLTADTSTSTAYMELRSLRSDDTAVYYCASGYEDAMDYWGQGTTVTVSS
VL: DIKMTQSPSSMYASLGERVIINCKASQDINSYLSWFQQKPGKSPKTLIYRANRLVDGVPSRFSGSGSGQDYSLTISSLEYEDMGIYYCLQYDEFPLTFGAGTKLELK
notes: Hybrid of humanized heavy chain HI and the chimeric light chain (murine VL, human constant region)
B13: cHLF (antibody, V domains shown)
VH: QVQLQQSGPELVRPGTFVKISCKASGYTFTNYDINWVNQRPGQGLEWIGWIYPGDGSTKYNEKFKAKATLTADKSSSTAYLQLNNLTSENSAVYFCASGYEDAMDYWGQGTSVTVSS
VL: DIQMTQSPSSLSASVGDRVIINCKASQDINSYLSWFQQKPGKAPKSLIYRANRLVDGVPSRFSGSGSGTDFTLTISSLQPEDFATYYCLQYDEFPLTFGGGTKVEIK
notes: Hybrid of the chimeric heavy chain (murine VH, human constant region) and humanized light chain LF
B14: cHLD (antibody, V domains shown)
VH: QVQLQQSGPELVRPGTFVKISCKASGYTFTNYDINWVNQRPGQGLEWIGWIYPGDGSTKYNEKFKAKATLTADKSSSTAYLQLNNLTSENSAVYFCASGYEDAMDYWGQGTSVTVSS
VL: DIQMTQSPSSLSASVGDRVTITCKASQDINSYLSWFQQKPGKAPKSLIYRANRLVDGVPSRFSGSGSGQDFTLTISSLQPEDFATYYCLQYDEFPLTFGGGTKVEIK
notes: Hybrid of the chimeric heavy chain (murine VH, human constant region) and humanized light chain LD
B15: cHLC (antibody, V domains shown)
VH: QVQLQQSGPELVRPGTFVKISCKASGYTFTNYDINWVNQRPGQGLEWIGWIYPGDGSTKYNEKFKAKATLTADKSSSTAYLQLNNLTSENSAVYFCASGYEDAMDYWGQGTSVTVSS
VL: DIQMTQSPSSLSASVGDRVTITCKASQDINSYLSWFQQKPGKAPKTLIYRANRLVDGVPSRFSGSGSGTDFTLTISSLQPEDFATYYCLQYDEFPLTFGGGTKVEIK
notes: Hybrid of the chimeric heavy chain (murine VH, human constant region) and humanized light chain LC
B16: HCcL (antibody, V domains shown)
VH: QVQLVQSGAEVKKPGASVKVSCKASGYTFTNYDINWVRQAPGQGLEWMGWIYPGDGSTKYNEKFKARVTMTTDTSTSTAYMELRSLRSDDTAVYYCASGYEDAMDYWGQGTTVTVSS
VL: DIKMTQSPSSMYASLGERVIINCKASQDINSYLSWFQQKPGKSPKTLIYRANRLVDGVPSRFSGSGSGQDYSLTISSLEYEDMGIYYCLQYDEFPLTFGAGTKLELK
notes: Hybrid of humanized heavy chain HC and the chimeric light chain (murine VL, human constant region)
B17: cHLG (antibody, V domains shown)
VH: QVQLQQSGPELVRPGTFVKISCKASGYTFTNYDINWVNQRPGQGLEWIGWIYPGDGSTKYNEKFKAKATLTADKSSSTAYLQLNNLTSENSAVYFCASGYEDAMDYWGQGTSVTVSS
VL: DIQMTQSPSSLSASVGDRVTINCKASQDINSYLSWFQQKPGKAPKTLIYRANRLVDGVPSRFSGSGSGQDYTLTISSLQPEDFATYYCLQYDEFPLTFGGGTKVEIK
notes: Hybrid of the chimeric heavy chain (murine VH, human constant region) and humanized light chain LG

How the values were obtained:
[1] = target: T1, cynomolgus CD33 (cynomolgus); assay: flow cytometry on HEK293F cells expressing cyno CD33; competition with 1 nM AlexaFluor-647 m2H12 (methods paragraph 148)
T1 construct: Recombinant on transfected HEK293F cells; also called cyno CD33; cynoCD33
Method: (§1) Cells were centrifuged, washed 3 times with PBS, and resuspended in 125 μL of a PBS+1% BSA solution. Fluorescence was analyzed using a flow cytometer, and the percent of saturated fluorescent signal was used to determine percent labeled 2H12 mAb bound. The EC50 was extrapolated by fitting the data to a sigmoidal dose-response curve with variable slope.
(§2) Humanized heavy and light chains were paired with chimeric light and heavy chains (chimeric chains composed of murine variable regions and human constant regions) respectively. The humanized/chimeric hybrid variants of CD33 mAb were tested for binding to human CD33 expressed on the surface of HEL 92.1.7 AML cells (Table 5). Heavy chains HC and HI were selected for further study. Humanized antibodies were expressed representing permutations of humanized heavy chains HC and HI and humanized light chains LA, LE and LG and binding to cells expressing human or cynomolgus (cyno) CD33 was determined (Table 6). The HILG antibody (2H12 HILG) was selected as the humanized antibody that most closely resembled the binding characteristics of the murine CD33 mAb m2H12. The HILG antibody is referred to as the h2H12 antibody ([…] 2H12 antibody). The KD for m2H12, h2H12, and h2H12 with an S239C mutation (EU numbering) in the IgG1 heavy chain (referred to as h2H12EC, for engineered cysteine), was determined for human CD33 expressed as an endogenous protein in two AML cell lines or as a recombinant protein in a HEK293F cell line. The KD for these antibodies was also determined for cyno CD33 expressed as a recombinant protein in a HEK293F cell line (Table 7).

[2] = target: T2, human CD33 (human, UniProt P20138 18-364); assay: flow cytometry on HEL 92.1.7 cells; competition with 1 nM AlexaFluor-647 m2H12 (methods paragraph 148)
T2 construct: Endogenous on HL-60 and HEL 92.1.7 AML cells, or recombinant on transfected HEK293F cells; The signal peptide is stated as amino acids 1-17; also called hCD33
Method: as §1, §2

[3] = target: T2, human CD33; assay: flow cytometry on HEK293F cells expressing human CD33; competition with 1 nM AlexaFluor-647 m2H12 (methods paragraph 148)
Method: as §1, §2

[4] = target: T2, human CD33; assay: flow cytometry on HEL 92.1.7 AML cells; competition with 1 nM AlexaFluor-647 m2H12 (methods paragraph 148)
Method: as §1, §2

T2 sequence (P20138 18-364): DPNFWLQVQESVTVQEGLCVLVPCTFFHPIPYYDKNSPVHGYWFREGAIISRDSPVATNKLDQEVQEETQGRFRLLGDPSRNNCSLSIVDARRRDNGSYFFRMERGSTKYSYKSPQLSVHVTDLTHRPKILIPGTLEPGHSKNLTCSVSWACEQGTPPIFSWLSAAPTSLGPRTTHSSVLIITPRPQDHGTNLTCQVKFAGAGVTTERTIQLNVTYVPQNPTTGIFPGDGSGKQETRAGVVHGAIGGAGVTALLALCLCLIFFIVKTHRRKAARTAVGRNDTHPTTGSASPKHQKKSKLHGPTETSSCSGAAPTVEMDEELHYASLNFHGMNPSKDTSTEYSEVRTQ
T1 sequence (chain, as listed by the source limits assumed): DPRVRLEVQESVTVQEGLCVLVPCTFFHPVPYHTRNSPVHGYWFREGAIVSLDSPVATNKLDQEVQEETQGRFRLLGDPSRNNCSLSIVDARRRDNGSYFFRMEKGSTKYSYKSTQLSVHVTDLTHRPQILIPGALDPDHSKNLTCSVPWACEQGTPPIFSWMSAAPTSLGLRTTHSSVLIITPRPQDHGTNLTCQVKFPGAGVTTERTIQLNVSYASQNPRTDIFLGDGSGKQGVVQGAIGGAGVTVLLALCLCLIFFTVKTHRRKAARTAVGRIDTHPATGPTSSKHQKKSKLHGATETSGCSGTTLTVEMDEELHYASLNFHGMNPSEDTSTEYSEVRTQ

Binder | EC50 [1] [nM] | EC50 [2] [nM] | EC50 [3] [nM] | EC50 [4] [nM]
B1 | 64.8 | 11.1 | 19.3 | –
B2 | 141 | 13.6 | 31.7 | –
B3 | 126 | 12.2 | 26.8 | –
B4 | 39.9 | 7.8 | 14.4 | 3.39
B5 | 129 | 12.8 | 22.2 | –
B6 | 63 | 7.9 | 17.9 | –
B7 | 30.6 | 5.4 | 11.6 | 2.38
B8 | – | – | – | 1.97
B9 | – | – | – | 2.61
B10 | – | – | – | 1.95
B11 | – | – | – | 2.53
B12 | – | – | – | 2.56
B13 | – | – | – | 2.02
B14 | – | – | – | 2.48
B15 | – | – | – | 2.49
B16 | – | – | – | 2.95
B17 | – | – | – | 1.91
